{
  "source": "paper PMC8053108",
  "about": "“RPA2 winged-helix domain facilitates UNG-mediated removal of uracil from ssDNA; implications for repair of mutagenic uracil at the replication fork” (Nucleic Acids Research, 2021)",
  "molecules": {"B1": {"name": "UNG-CD: catalytic UNG domain, starting at UNG2 aa 93, lacking the N-terminal RPA-binding helix (protein)", "chain": "GFGESWKKHLSGEFGKPYFIKLMGFVAEERKHYTVYPPPHQVFTWTQMCDIKDVKVVILGQDPYHGPNQAHGLCFSVQRPVPPPPSLENIYKELSTDIEDFVHPGHGDLSGWAKQGVLLLNAVLTVRAHQANSHKERGWEQFTDAVVSWLNQNSNGLVFLLWGSYAQKKGSAIDRKRHHVLQTAHPSPLSVYRGFFGCRHFSKTNELLQKSGKKPIDWKEL"}},
  "key": {"U10-25* ssDNA substrate": {"tested_on": "U10-25* ssDNA substrate", "assay": "Uracil excision assay, RPA-coated versus naked ssDNA", "assay_type": "biochemical", "conditions": "1 μM RPA, 100 nM U10-25* ssDNA; 10 min, 22°C; three independent experiments", "description": "(§1) 3′-FAM-labelled, PAGE-purified oligonucleotide substrates were from Sigma-Aldrich. Unless otherwise indicated, the substrate (25 nt) harboured uracil at position 10 in a polyC sequence to avoid secondary structures (U10-25*: […]-FAM). Double-stranded substrate was generated by annealing (heating followed by slow cooling) U10-25* to a non-labelled complementary oligo (A16-25: […]). All assays were performed at 22°C in 10 mM Tris–HCl pH 7.5, 50 mM NaCl, 1 mM DTT, 0.1 mM EDTA, 0.5 mg/ml BSA.\n(§2) Varying amounts of UNG were then added, and the mixtures incubated for 10 min in a water bath. To avoid unspecific interactions and binding of enzyme and DNA to the assay tube surface, low-DNA binding tubes and excess of BSA was used in all reactions. Reactions were quenched and AP sites cleaved in 10% piperidine at 90°C for 20 min. Samples were dried by vacuum centrifugation and suspended in formamide-containing loading buffer. Product and substrate were separated in 12% PAGE/7M urea–0.5× TBE gels, bands visualised in ChemiDoc™ Imager (Bio-Rad) and quantified by Image Lab software (Bio-Rad). Importantly, all assays in which two parameters were compared (e.g. RPA-coated versus naked substrate or WT versus mutated protein) were performed in parallel with the exact same DNA/protein dilutions."}, "U10-25* dsDNA substrate": {"tested_on": "U10-25* dsDNA substrate", "assay": "Uracil excision assay, dsDNA preincubated with RPA-WT or RPA-ΔWH", "assay_type": "biochemical", "conditions": "100 nM U10-25* dsDNA", "description": "as §1, §2"}},
  "data": [
    {"molecule": "B1", "values": [
      {"measurement": "fold reduced activity with RPA-coated ssDNA compared to naked DNA substrate", "setting": "U10-25* ssDNA substrate", "value": 1000, "unit": "fold"},
      {"measurement": "fold increased enzyme concentration to convert similar amounts of substrate in presence of RPA-WT", "setting": "U10-25* dsDNA substrate; 500 nM RPA-WT", "value": "~200", "unit": "fold"},
      {"measurement": "fold increased enzyme concentration to convert similar amounts of substrate in presence of RPA-ΔWH", "setting": "U10-25* dsDNA substrate; 500 nM RPA-ΔWH", "value": "~50", "unit": "fold"}
    ]}
  ]
}
